Ends that are not written are not given here.
Target: T1, RNASEH2BC heterodimer, purified (human, UniProt Q5TBB1 1-312; Q8TDP1 1-164)
T1 sequence (looked up) 1: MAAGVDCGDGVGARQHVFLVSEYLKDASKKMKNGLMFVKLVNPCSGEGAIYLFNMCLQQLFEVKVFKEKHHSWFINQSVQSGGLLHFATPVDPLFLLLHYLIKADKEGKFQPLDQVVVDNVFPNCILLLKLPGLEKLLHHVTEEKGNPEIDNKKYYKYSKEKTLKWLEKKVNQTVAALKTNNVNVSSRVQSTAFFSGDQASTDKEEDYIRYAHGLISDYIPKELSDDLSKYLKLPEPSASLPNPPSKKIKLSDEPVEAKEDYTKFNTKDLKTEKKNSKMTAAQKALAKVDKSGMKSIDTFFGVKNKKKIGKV
T1 sequence (looked up) 2: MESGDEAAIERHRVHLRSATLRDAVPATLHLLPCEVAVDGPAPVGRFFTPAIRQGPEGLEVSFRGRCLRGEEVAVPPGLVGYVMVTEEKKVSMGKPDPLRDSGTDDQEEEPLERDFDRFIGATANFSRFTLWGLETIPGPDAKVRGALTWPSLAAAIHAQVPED
Test: fluorescence polarisation

Kd: 123 ± 10 nM
Binder: fluorescein-GSSHRYFLERGLESATSL [fluorescein-labeled peptide RNASEH2A:283–299]

From article PMC3060506 (The Journal of Biological Chemistry, 2010)
